# Measurements from patent US20220040297A1 (Chugai, published 2022).
# Numbering of substitutions follows the chain as printed. In names and notes the source's numbering stands.
# B1: GLS3000 F55K (antibody, IgG1, name in Kabat numbering, V domains shown)
# VH: QVQLVESGGGVVQPGRSLRLSCAASGFTFSNAWMHWVRQAPGKGLEWVAQIKAKSNNYATYYAESVKGRFTISRDDSKNSLYLQMNSLKTEDTAVYYCRYVHYGAYYGVDAWGQGTTVTVSS
# VL: DIVMTQSPLSLPVTPGEPASISCRSSQSLVHSNRNTYLHWYQQKPGQAPRLLIYKVSNRKSGVPDRFSGSGSGTDFTLKISRVEAEDVGVYYCGQGTQVPYTFGQGTKLEIK
# B2: GLS3000 Q90Y (antibody, IgG1, name in Kabat numbering, V domains shown)
# VH: B1 VH
# VL: B1 VL with K60F, Q95Y
# B3: GLS3000 R45Q (antibody, IgG1, name in Kabat numbering, V domains shown)
# VH: B1 VH
# VL: B1 VL with R50Q, K60F
# B4: GLS3000 G89W (antibody, IgG1, name in Kabat numbering, V domains shown)
# VH: B1 VH
# VL: B1 VL with K60F, G94W
# B5: GLS3000 H34R (antibody, IgG1, name in Kabat numbering, V domains shown)
# VH: B1 VH
# VL: B1 VL with H39R, K60F
# B6: GLS3000 R29V (antibody, IgG1, name in Kabat numbering, V domains shown)
# VH: B1 VH
# VL: B1 VL with R34V, K60F
# B7: GLS3000 N28D (antibody, IgG1, name in Kabat numbering, V domains shown)
# VH: B1 VH
# VL: B1 VL with N33D, K60F
# B8: GLS3000 N30Y (antibody, IgG1, name in Kabat numbering, V domains shown)
# VH: B1 VH
# VL: B1 VL with N35Y, K60F
# B9: GLS3000 H34M (antibody, IgG1, name in Kabat numbering, V domains shown)
# VH: B1 VH
# VL: B1 VL with H39M, K60F
# B10: GLS3000 L27bE (antibody, IgG1, name in Kabat numbering, V domains shown)
# VH: B1 VH
# VL: B1 VL with L29E, K60F
# B11: GLS3000 G89Y (antibody, IgG1, name in Kabat numbering, V domains shown)
# VH: B1 VH
# VL: B1 VL with K60F, G94Y
# B12: GLS3000 R45D (antibody, IgG1, name in Kabat numbering, V domains shown)
# VH: B1 VH
# VL: B1 VL with R50D, K60F
# B13: GLS3000 G91S (antibody, IgG1, name in Kabat numbering, V domains shown)
# VH: B1 VH
# VL: B1 VL with K60F, G96S
# B14: GLS3000 G89A (antibody, IgG1, name in Kabat numbering, V domains shown)
# VH: B1 VH
# VL: B1 VL with K60F, G94A
# B15: GLS3000 R45E (antibody, IgG1, name in Kabat numbering, V domains shown)
# VH: B1 VH
# VL: B1 VL with R50E, K60F
# B16: GLS3000 S25E (antibody, IgG1, name in Kabat numbering, V domains shown)
# VH: B1 VH
# VL: B1 VL with S25E, K60F
# B17: GLS3000 L33P (antibody, IgG1, name in Kabat numbering, V domains shown)
# VH: B1 VH
# VL: B1 VL with L38P, K60F
# B18: GLS3000 H34E (antibody, IgG1, name in Kabat numbering, V domains shown)
# VH: B1 VH
# VL: B1 VL with H39E, K60F
# B19: GLS3000 P95E (antibody, IgG1, name in Kabat numbering, V domains shown)
# VH: B1 VH
# VL: B1 VL with K60F, P100E
# B20: GLS3000 S27eE (antibody, IgG1, name in Kabat numbering, V domains shown)
# VH: B1 VH
# VL: B1 VL with S32E, K60F
# B21: CE115HA000 Y97D (antibody, name in Kabat numbering, V domains shown)
# VH: B1 VH with Y103D
# VL: B1 VL with K60F
# B22: CE115HA000 Y58L (antibody, name in Kabat numbering, V domains shown)
# VH: B1 VH with Y61L
# VL: B1 VL with K60F
# B23: CE115HA000 Y100aS (antibody, name in Kabat numbering, V domains shown)
# VH: B1 VH with Y107S
# VL: B1 VL with K60F
# B24: CE115HA000 Y59D (antibody, name in Kabat numbering, V domains shown)
# VH: B1 VH with Y62D
# VL: B1 VL with K60F
# B25: CE115HA000 Y100aQ (antibody, name in Kabat numbering, V domains shown)
# VH: B1 VH with Y107Q
# VL: B1 VL with K60F
# B26: CE115HA000 Y58S (antibody, name in Kabat numbering, V domains shown)
# VH: B1 VH with Y61S
# VL: B1 VL with K60F
# B27: CE115HA000 Y58Q (antibody, name in Kabat numbering, V domains shown)
# VH: B1 VH with Y61Q
# VL: B1 VL with K60F
# B28: CE115HA000 Y58N (antibody, name in Kabat numbering, V domains shown)
# VH: B1 VH with Y61N
# VL: B1 VL with K60F
# B29: CE115HA000 Y100A (antibody, name in Kabat numbering, V domains shown)
# VH: B1 VH with Y106A
# VL: B1 VL with K60F
# B30: CE115HA000 Y100aH (antibody, name in Kabat numbering, V domains shown)
# VH: B1 VH with Y107H
# VL: B1 VL with K60F
# B31: CE115HA000 Y59S (antibody, name in Kabat numbering, V domains shown)
# VH: B1 VH with Y62S
# VL: B1 VL with K60F
# B32: CE115HA000 Y100aF (antibody, name in Kabat numbering, V domains shown)
# VH: B1 VH with Y107F
# VL: B1 VL with K60F
# B33: CE115HA000 Y100aG (antibody, name in Kabat numbering, V domains shown)
# VH: B1 VH with Y107G
# VL: B1 VL with K60F
# B34: CE115HA000 Y100W (antibody, name in Kabat numbering, V domains shown)
# VH: B1 VH with Y106W
# VL: B1 VL with K60F
# B35: CE115HA000 Y59A (antibody, name in Kabat numbering, V domains shown)
# VH: B1 VH with Y62A
# VL: B1 VL with K60F
# B36: CE115HA000 Y100V (antibody, name in Kabat numbering, V domains shown)
# VH: B1 VH with Y106V
# VL: B1 VL with K60F
# B37: CE115HA000 Y59E (antibody, name in Kabat numbering, V domains shown)
# VH: B1 VH with Y62E
# VL: B1 VL with K60F
# B38: CE115HA000 Y100Q (antibody, name in Kabat numbering, V domains shown)
# VH: B1 VH with Y106Q
# VL: B1 VL with K60F
# B39: CE115HA000 Y58K (antibody, name in Kabat numbering, V domains shown)
# VH: B1 VH with Y61K
# VL: B1 VL with K60F
# B40: CE115HA000 Y58D (antibody, name in Kabat numbering, V domains shown)
# VH: B1 VH with Y61D
# VL: B1 VL with K60F
# B41: CE115HA000 Y97P (antibody, name in Kabat numbering, V domains shown)
# VH: B1 VH with Y103P
# VL: B1 VL with K60F
# B42: CE115HA000 Y100D (antibody, name in Kabat numbering, V domains shown)
# VH: B1 VH with Y106D
# VL: B1 VL with K60F
# B43: CE115HA000 Y100P (antibody, name in Kabat numbering, V domains shown)
# VH: B1 VH with Y106P
# VL: B1 VL with K60F
# Molecular target: T1, CD3ε homodimer protein (human, UniProt P07766 23-126, limits assumed)
# T1 construct: Whole entry named for the human CD3 epsilon chain
# Experiment: SPR, CD3e immobilized
# Description: Each one-amino acid altered form constructed, expressed, and purified in the paragraph (6-2) was evaluated using Biacore T200 (GE Healthcare Japan Corp.). An appropriate amount of CD3ε homodimer protein was immobilized onto Sensor chip CM4 (GE Healthcare Japan Corp.) by the amine coupling method. Then, the antibody having an appropriate concentration was injected thereto as an analyte and allowed to interact with the CD3ε homodimer protein on the sensor chip. Then, the sensor chip was regenerated by the injection of 10 mmol/L glycine-HCl (pH 1.5). The assay was conducted at 25° C., and HBS-EP+ (GE Healthcare Japan Corp.) was used as a running buffer. […] Each parameter was calculated using Biacore T200 Evaluation Software (GE Healthcare Japan Corp.).
# Specifically, when the amount of the GLS3000-containing antibody bound was defined as X and the amount of the L chain one-amino acid altered form bound was defined as Y, a value of Z (ratio of amounts bound)=Y/X was used.
# T1 sequence (P07766 23-126 limits assumed): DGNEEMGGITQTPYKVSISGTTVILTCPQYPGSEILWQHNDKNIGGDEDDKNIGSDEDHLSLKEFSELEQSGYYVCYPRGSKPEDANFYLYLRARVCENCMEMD
row,Binder,KD ratio to GLS3000
1,B1,1.22
2,B2,36.3
3,B3,0.98
4,B4,2.3
5,B5,85800
6,B6,3.25
7,B7,4460
8,B8,1.01
9,B9,3.36
10,B10,26.8
11,B11,1.32
12,B12,0.86
13,B13,7210
14,B14,1.3
15,B15,1.01
16,B16,6.54
17,B17,12.7
18,B18,5.03
19,B19,1.61
20,B20,1.84

# Molecular target: T2, CD3ε homodimer protein (human, UniProt P07766 23-126, limits assumed, sulfo-tag or biotin label in some ECL assays)
# T2 construct: also called human CD3ε homodimer protein; CD3 (CD3ε)
# Experiment: SPR, CD3ε homodimer on chip;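 also: biacore SPR with antibody variants flowed as analyte over amine-coupled CD3ε homodimer on a CM chip, bound amount of each single-residue H chain variant over that of parent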
# T2 sequence (P07766 23-126 limits assumed): as above
row,Binder,ratio of amounts bound vs CE115HA000
1,B21,0.24
2,B22,0.27
3,B23,0.64
4,B24,0.7
5,B25,0.56
6,B26,0.18
7,B27,0.19
8,B28,0.33
9,B29,9.9
10,B30,0.9
11,B31,0.94
12,B32,0.87
13,B33,1.23
14,B34,1.03
15,B35,0.35
16,B36,0.8
17,B37,0.66
18,B38,0.8
19,B39,0.3
20,B40,0.11
21,B41,0.11
22,B42,0.52
23,B43,0.48
